The source of these data is publication PMC8034659.

What all share (experiment): SPR
In general terms: Surface plasmon resonance follows binding to a sensor surface in real time, without labels.

The target of one data set is T1, TrfA P151S/E361K (plasmid RK2, UniProt P07676 98-382, P151S;G254D;S267L;E361K).
T1 sequence: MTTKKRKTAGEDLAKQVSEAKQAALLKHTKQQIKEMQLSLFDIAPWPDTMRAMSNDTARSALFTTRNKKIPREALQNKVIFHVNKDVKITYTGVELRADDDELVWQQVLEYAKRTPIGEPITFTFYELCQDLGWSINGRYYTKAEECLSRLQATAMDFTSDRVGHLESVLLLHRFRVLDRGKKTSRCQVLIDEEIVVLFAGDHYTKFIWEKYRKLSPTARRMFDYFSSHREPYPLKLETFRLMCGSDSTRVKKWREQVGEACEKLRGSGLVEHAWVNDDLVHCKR

The next data set concerns the target T2, TrfA E361K (plasmid RK2, UniProt P07676 98-382, G254D;S267L;E361K).
T2 sequence: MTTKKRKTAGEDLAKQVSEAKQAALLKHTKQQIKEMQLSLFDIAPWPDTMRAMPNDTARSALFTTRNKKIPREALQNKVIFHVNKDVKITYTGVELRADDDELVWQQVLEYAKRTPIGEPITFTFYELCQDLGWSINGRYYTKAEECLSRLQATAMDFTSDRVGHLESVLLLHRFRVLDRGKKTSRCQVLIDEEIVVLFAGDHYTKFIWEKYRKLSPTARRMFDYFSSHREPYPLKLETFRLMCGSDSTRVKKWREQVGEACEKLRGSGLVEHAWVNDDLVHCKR

The target in data set [1] is T3, TrfA wt (G254D/S267L, 33 kDa) (plasmid RK2, UniProt P07676 98-382, G254D;S267L).
T3 sequence: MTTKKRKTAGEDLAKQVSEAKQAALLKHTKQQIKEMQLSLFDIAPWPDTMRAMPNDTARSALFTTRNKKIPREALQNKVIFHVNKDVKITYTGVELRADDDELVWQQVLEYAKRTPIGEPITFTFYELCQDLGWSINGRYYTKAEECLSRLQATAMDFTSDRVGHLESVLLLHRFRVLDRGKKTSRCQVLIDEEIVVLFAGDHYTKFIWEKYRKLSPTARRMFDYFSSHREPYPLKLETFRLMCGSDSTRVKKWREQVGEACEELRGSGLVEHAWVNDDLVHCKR

The target in the next data set is T4, TrfA A171T (plasmid RK2, UniProt P07676 98-382, A171T;G254D;S267L).
T4 sequence: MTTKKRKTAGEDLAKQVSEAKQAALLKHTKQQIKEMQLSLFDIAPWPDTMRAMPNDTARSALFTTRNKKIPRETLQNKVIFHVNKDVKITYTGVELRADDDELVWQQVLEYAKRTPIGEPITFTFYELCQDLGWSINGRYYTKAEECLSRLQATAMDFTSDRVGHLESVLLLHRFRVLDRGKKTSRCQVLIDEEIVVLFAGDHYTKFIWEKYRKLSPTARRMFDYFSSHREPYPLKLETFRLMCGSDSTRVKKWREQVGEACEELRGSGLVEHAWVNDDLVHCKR

In a further data set the target is T5, TrfA R169E (plasmid RK2, UniProt P07676 98-382, R169E;G254D;S267L).
T5 sequence: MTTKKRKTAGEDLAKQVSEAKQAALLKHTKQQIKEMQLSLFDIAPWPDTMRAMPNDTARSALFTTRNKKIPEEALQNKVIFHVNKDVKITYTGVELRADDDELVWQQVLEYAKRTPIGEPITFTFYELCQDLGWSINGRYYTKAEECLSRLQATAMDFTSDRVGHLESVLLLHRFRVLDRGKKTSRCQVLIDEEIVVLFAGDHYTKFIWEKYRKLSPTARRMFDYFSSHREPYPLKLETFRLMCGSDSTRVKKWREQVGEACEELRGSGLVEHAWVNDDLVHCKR

The next data set concerns the target T6, TrfA T105E (plasmid RK2, UniProt P07676 98-382, T105E;G254D;S267L).
T6 sequence: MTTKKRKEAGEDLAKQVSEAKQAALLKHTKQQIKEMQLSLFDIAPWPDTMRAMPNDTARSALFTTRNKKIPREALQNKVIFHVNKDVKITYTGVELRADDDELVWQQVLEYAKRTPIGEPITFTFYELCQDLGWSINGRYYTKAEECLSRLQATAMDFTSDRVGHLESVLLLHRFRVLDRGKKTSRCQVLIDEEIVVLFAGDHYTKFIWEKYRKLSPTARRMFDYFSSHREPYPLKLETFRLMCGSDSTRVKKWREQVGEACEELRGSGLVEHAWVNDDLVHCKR

The target of the next data set is T7, TrfA R347E (plasmid RK2, UniProt P07676 98-382, G254D;S267L;R347E).
T7 sequence: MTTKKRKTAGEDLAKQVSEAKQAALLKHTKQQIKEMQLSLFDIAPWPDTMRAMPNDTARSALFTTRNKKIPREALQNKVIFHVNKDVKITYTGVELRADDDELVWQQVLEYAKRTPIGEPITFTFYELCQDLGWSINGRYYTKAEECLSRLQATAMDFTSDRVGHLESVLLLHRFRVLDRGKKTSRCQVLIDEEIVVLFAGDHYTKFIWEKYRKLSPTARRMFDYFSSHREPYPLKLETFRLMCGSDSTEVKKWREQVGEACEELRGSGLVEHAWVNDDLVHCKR

B1: five RK2 iterons (ItT/ItB) (dsDNA)
DNA 1: CCTGCGGTATTGACACTTGAGGGGCGCGACTACTGACAGATGAGGGGCGCGATCCTTGACACTTGAGGGGCAGAGTGATGACAGATGAGGGGCGCACCTATTGACATTTGAGGGGCTGTCCACAGGCAG
DNA 2: CTGCCTGTGGACAGCCCCTCAAATGTCAATAGGTGCGCCCCTCATCTGTCATCACTCTGCCCCTCAAGTGTCAAGGATCGCGCCCCTCATCTGTCAGTAGTCGCGCCCCTCAAGTGTCAATACCGCAGG
In the case of B1, the binding result in the data set with TrfA P151S/E361K was “binds”; with TrfA E361K, “binds”; in data set [1], “binds”; in the data set with TrfA A171T it was “binds”; in the data set with TrfA R169E, “no binding”; in the data set with TrfA T105E, “binds”. Moreover, the binding result with TrfA R347E is “no binding”.
